Results: patent publication US20260242419A1, “A CYCLIC PEPTIDE FOR TRAPPING INTERLEUKIN-1 BETA” (Merck Sharp & Dohme LLC, priority 2023, published 2026)
Starred links: 1 amine or outer side, 2 acyl side, 3 side chain; linkers in the order of their positions; H or OH if unused. Non-standard residues stand in square brackets, D forms with d. dProc3CH2Pyrim = (2R,3S)-3-(pyrimidin-5-ylmethyl)pyrrolidine-2-carboxylic acid, O=C([C@H]1[C@@H](Cc2cncnc2)CCN1[*:1])[*:2]; TyrEtNAc = (2S)-3-[4-(2-acetamidoethoxy)phenyl]-2-amino-propanoic acid, CC(=O)NCCOc1ccc(C[C@H](N[*:1])C(=O)[*:2])cc1; Phe(4-(trans-4-COOH-cHex)) = N[C@@H](Cc1ccc([C@H]2CC[C@H](C(=O)O)CC2)cc1)C(=O)O; Phe(4-(cis-4-COOH-cHex)) = N[C@@H](Cc1ccc([C@H]2CC[C@@H](C(=O)O)CC2)cc1)C(=O)O; Trp(βS-Me,4-F) = C[C@@H](c1c[nH]c2cccc(F)c12)[C@H](N)C(=O)O; 3Aminoazetidine3carboxyl = O=C(C1(N[*:1])CN([*:3])C1)[*:2]; Bip(4'-COOH) = N[C@@H](Cc1ccc(-c2ccc(C(=O)O)cc2)cc1)C(=O)O; dPro(4R-Bzl(4-F)) = O=C(O)[C@H]1C[C@@H](Cc2ccc(F)cc2)CN1; Ala(pyrimidin-5-yl) = N[C@@H](Cc1cncnc1)C(=O)O; Phe(4-COOH) = N[C@@H](Cc1ccc(C(=O)O)cc1)C(=O)O; Pro(cis-4-F) = O=C(O)[C@@H]1C[C@H](F)CN1; 2Pal = N[C@@H](Cc1ccccn1)C(=O)O; 3Pal = N[C@@H](Cc1cccnc1)C(=O)O; 4Pal = N[C@@H](Cc1ccncc1)C(=O)O; αMeK = C[C@](N)(CCCCN)C(=O)O; Api = NC1(C(=O)O)CCNCC1; Dab = NCC[C@H](N)C(=O)O; Dap = NC[C@H](N)C(=O)O; Aib = CC(C)(N)C(=O)O

Target: Recombinant human IL-1β (BioLegend 579404) (human, UniProt P01584 117-269)
Test: cell-based or functional assay

Binder	MRC5 IC50
cyclo([TyrEtNAc][4Pal][Phe(4-COOH)][Pro(cis-4-F)][Trp(βS-Me,4-F)][Aib]EW[Aib]RQ[Dab]G[dPro(4R-Bzl(4-F))]) (SMILES CC(=O)NCCOc1ccc(C[C@@H]2NC(=O)[C@H]3C[C@@H](Cc4ccc(F)cc4)CN3C(=O)CNC(=O)[C@H](CCN)NC(=O)[C@H](CCC(N)=O)NC(=O)[C@H](CCCNC(=N)N)NC(=O)C(C)(C)NC(=O)[C@H](Cc3c[nH]c4ccccc34)NC(=O)[C@H](CCC(=O)O)NC(=O)C(C)(C)NC(=O)[C@H]([C@@H](C)c3c[nH]c4cccc(F)c34)NC(=O)[C@@H]3C[C@H](F)CN3C(=O)[C@H](Cc3ccc(C(=O)O)cc3)NC(=O)[C@H](Cc3ccncc3)NC2=O)cc1) [SEQ ID NO: 74]	0.072 nM
cyclo([Phe(4-(cis-4-COOH-cHex))][4Pal][Phe(4-COOH)]G[Pro(cis-4-F)][Trp(βS-Me,4-F)][Aib]EW[3Aminoazetidine3carboxyl][Ala(pyrimidin-5-yl)]Q[Dab]G[dPro(4R-Bzl(4-F))]) (SMILES C[C@@H](c1c[nH]c2cccc(F)c12)[C@@H]1NC(=O)[C@@H]2C[C@H](F)CN2C(=O)CNC(=O)[C@H](Cc2ccc(C(=O)O)cc2)NC(=O)[C@H](Cc2ccncc2)NC(=O)[C@H](Cc2ccc([C@H]3CC[C@@H](C(=O)O)CC3)cc2)NC(=O)[C@H]2C[C@@H](Cc3ccc(F)cc3)CN2C(=O)CNC(=O)[C@H](CCN)NC(=O)[C@H](CCC(N)=O)NC(=O)[C@H](Cc2cncnc2)NC(=O)C2(CNC2)NC(=O)[C@H](Cc2c[nH]c3ccccc23)NC(=O)[C@H](CCC(=O)O)NC(=O)C(C)(C)NC1=O) [SEQ ID NO: 69]	0.03 nM
cyclo([Bip(4'-COOH)][4Pal][Phe(4-COOH)]G[Pro(cis-4-F)][Trp(βS-Me,4-F)][Aib]EW[Aib][Ala(pyrimidin-5-yl)]QRG[dPro(4R-Bzl(4-F))]) (SMILES C[C@@H](c1c[nH]c2cccc(F)c12)[C@@H]1NC(=O)[C@@H]2C[C@H](F)CN2C(=O)CNC(=O)[C@H](Cc2ccc(C(=O)O)cc2)NC(=O)[C@H](Cc2ccncc2)NC(=O)[C@H](Cc2ccc(-c3ccc(C(=O)O)cc3)cc2)NC(=O)[C@H]2C[C@@H](Cc3ccc(F)cc3)CN2C(=O)CNC(=O)[C@H](CCCNC(=N)N)NC(=O)[C@H](CCC(N)=O)NC(=O)[C@H](Cc2cncnc2)NC(=O)C(C)(C)NC(=O)[C@H](Cc2c[nH]c3ccccc23)NC(=O)[C@H](CCC(=O)O)NC(=O)C(C)(C)NC1=O) [SEQ ID NO: 75]	0.056 nM
cyclo([Bip(4'-COOH)][4Pal][Phe(4-COOH)]G[Pro(cis-4-F)][Trp(βS-Me,4-F)][Aib]EW[Aib][2Pal]Q[Dab]G[dPro(4R-Bzl(4-F))]) (SMILES C[C@@H](c1c[nH]c2cccc(F)c12)[C@@H]1NC(=O)[C@@H]2C[C@H](F)CN2C(=O)CNC(=O)[C@H](Cc2ccc(C(=O)O)cc2)NC(=O)[C@H](Cc2ccncc2)NC(=O)[C@H](Cc2ccc(-c3ccc(C(=O)O)cc3)cc2)NC(=O)[C@H]2C[C@@H](Cc3ccc(F)cc3)CN2C(=O)CNC(=O)[C@H](CCN)NC(=O)[C@H](CCC(N)=O)NC(=O)[C@H](Cc2ccccn2)NC(=O)C(C)(C)NC(=O)[C@H](Cc2c[nH]c3ccccc23)NC(=O)[C@H](CCC(=O)O)NC(=O)C(C)(C)NC1=O) [SEQ ID NO: 73]	0.031 nM
cyclo([Bip(4'-COOH)][4Pal][Phe(4-COOH)]G[Pro(cis-4-F)][Trp(βS-Me,4-F)][Aib]EW[Aib][3Pal]Q[Dab]G[dPro(4R-Bzl(4-F))]) [SEQ ID NO: 72]	0.027 nM
cyclo([Bip(4'-COOH)][4Pal][Phe(4-COOH)]G[Pro(cis-4-F)][Trp(βS-Me,4-F)][αMeK]EW[Aib][Ala(pyrimidin-5-yl)]Q[Dab]G[dPro(4R-Bzl(4-F))]) (SMILES C[C@@H](c1c[nH]c2cccc(F)c12)[C@@H]1NC(=O)[C@@H]2C[C@H](F)CN2C(=O)CNC(=O)[C@H](Cc2ccc(C(=O)O)cc2)NC(=O)[C@H](Cc2ccncc2)NC(=O)[C@H](Cc2ccc(-c3ccc(C(=O)O)cc3)cc2)NC(=O)[C@H]2C[C@@H](Cc3ccc(F)cc3)CN2C(=O)CNC(=O)[C@H](CCN)NC(=O)[C@H](CCC(N)=O)NC(=O)[C@H](Cc2cncnc2)NC(=O)C(C)(C)NC(=O)[C@H](Cc2c[nH]c3ccccc23)NC(=O)[C@H](CCC(=O)O)NC(=O)[C@](C)(CCCCN)NC1=O) [SEQ ID NO: 66]	0.028 nM
cyclo([TyrEtNAc][4Pal][Phe(4-COOH)][Pro(cis-4-F)][Trp(βS-Me,4-F)][Aib]EW[Aib][Ala(pyrimidin-5-yl)]Q[Dab]G[dProc3CH2Pyrim]) (SMILES CC(=O)NCCOc1ccc(C[C@@H]2NC(=O)[C@H]3[C@@H](Cc4cncnc4)CCN3C(=O)CNC(=O)[C@H](CCN)NC(=O)[C@H](CCC(N)=O)NC(=O)[C@H](Cc3cncnc3)NC(=O)C(C)(C)NC(=O)[C@H](Cc3c[nH]c4ccccc34)NC(=O)[C@H](CCC(=O)O)NC(=O)C(C)(C)NC(=O)[C@H]([C@@H](C)c3c[nH]c4cccc(F)c34)NC(=O)[C@@H]3C[C@H](F)CN3C(=O)[C@H](Cc3ccc(C(=O)O)cc3)NC(=O)[C@H](Cc3ccncc3)NC2=O)cc1) [SEQ ID NO: 70]	0.081 nM
cyclo([Bip(4'-COOH)][4Pal][Phe(4-COOH)]G[Pro(cis-4-F)][Trp(βS-Me,4-F)][Aib]EW[αMeK][Ala(pyrimidin-5-yl)]Q[Dab]G[dPro(4R-Bzl(4-F))]) [SEQ ID NO: 67]	0.021 nM
cyclo([Phe(4-(trans-4-COOH-cHex))][4Pal][Phe(4-COOH)]G[Pro(cis-4-F)][Trp(βS-Me,4-F)][Aib]EW[3Aminoazetidine3carboxyl][Ala(pyrimidin-5-yl)]Q[Dab]G[dPro(4R-Bzl(4-F))]) (SMILES C[C@@H](c1c[nH]c2cccc(F)c12)[C@@H]1NC(=O)[C@@H]2C[C@H](F)CN2C(=O)CNC(=O)[C@H](Cc2ccc(C(=O)O)cc2)NC(=O)[C@H](Cc2ccncc2)NC(=O)[C@H](Cc2ccc([C@H]3CC[C@H](C(=O)O)CC3)cc2)NC(=O)[C@H]2C[C@@H](Cc3ccc(F)cc3)CN2C(=O)CNC(=O)[C@H](CCN)NC(=O)[C@H](CCC(N)=O)NC(=O)[C@H](Cc2cncnc2)NC(=O)C2(CNC2)NC(=O)[C@H](Cc2c[nH]c3ccccc23)NC(=O)[C@H](CCC(=O)O)NC(=O)C(C)(C)NC1=O) [SEQ ID NO: 68]	0.029 nM
cyclo([Bip(4'-COOH)][4Pal][Phe(4-COOH)]G[Pro(cis-4-F)][Trp(βS-Me,4-F)][Aib]EW[Aib][4Pal]QRG[dPro(4R-Bzl(4-F))]) (SMILES C[C@@H](c1c[nH]c2cccc(F)c12)[C@@H]1NC(=O)[C@@H]2C[C@H](F)CN2C(=O)CNC(=O)[C@H](Cc2ccc(C(=O)O)cc2)NC(=O)[C@H](Cc2ccncc2)NC(=O)[C@H](Cc2ccc(-c3ccc(C(=O)O)cc3)cc2)NC(=O)[C@H]2C[C@@H](Cc3ccc(F)cc3)CN2C(=O)CNC(=O)[C@H](CCCNC(=N)N)NC(=O)[C@H](CCC(N)=O)NC(=O)[C@H](Cc2ccncc2)NC(=O)C(C)(C)NC(=O)[C@H](Cc2c[nH]c3ccccc23)NC(=O)[C@H](CCC(=O)O)NC(=O)C(C)(C)NC1=O) [SEQ ID NO: 76]	0.059 nM
cyclo([Bip(4'-COOH)][4Pal][Phe(4-COOH)]G[Pro(cis-4-F)][Trp(βS-Me,4-F)][Aib]EW[Aib][Ala(pyrimidin-5-yl)]Q[Dap]G[dPro(4R-Bzl(4-F))]) (SMILES C[C@@H](c1c[nH]c2cccc(F)c12)[C@@H]1NC(=O)[C@@H]2C[C@H](F)CN2C(=O)CNC(=O)[C@H](Cc2ccc(C(=O)O)cc2)NC(=O)[C@H](Cc2ccncc2)NC(=O)[C@H](Cc2ccc(-c3ccc(C(=O)O)cc3)cc2)NC(=O)[C@H]2C[C@@H](Cc3ccc(F)cc3)CN2C(=O)CNC(=O)[C@H](CN)NC(=O)[C@H](CCC(N)=O)NC(=O)[C@H](Cc2cncnc2)NC(=O)C(C)(C)NC(=O)[C@H](Cc2c[nH]c3ccccc23)NC(=O)[C@H](CCC(=O)O)NC(=O)C(C)(C)NC1=O) [SEQ ID NO: 7]	0.026 nM
cyclo([Bip(4'-COOH)][4Pal][Phe(4-COOH)]G[Pro(cis-4-F)][Trp(βS-Me,4-F)][Aib]EW[Aib][Ala(pyrimidin-5-yl)]Q[Dab]G[dProc3CH2Pyrim]) (SMILES C[C@@H](c1c[nH]c2cccc(F)c12)[C@@H]1NC(=O)[C@@H]2C[C@H](F)CN2C(=O)CNC(=O)[C@H](Cc2ccc(C(=O)O)cc2)NC(=O)[C@H](Cc2ccncc2)NC(=O)[C@H](Cc2ccc(-c3ccc(C(=O)O)cc3)cc2)NC(=O)[C@H]2[C@@H](Cc3cncnc3)CCN2C(=O)CNC(=O)[C@H](CCN)NC(=O)[C@H](CCC(N)=O)NC(=O)[C@H](Cc2cncnc2)NC(=O)C(C)(C)NC(=O)[C@H](Cc2c[nH]c3ccccc23)NC(=O)[C@H](CCC(=O)O)NC(=O)C(C)(C)NC1=O) [SEQ ID NO: 71]	0.058 nM
cyclo([Bip(4'-COOH)][4Pal][Phe(4-COOH)]G[Pro(cis-4-F)][Trp(βS-Me,4-F)][Aib]EW[Api][Ala(pyrimidin-5-yl)]Q[Dab]G[dPro(4R-Bzl(4-F))]) (SMILES C[C@@H](c1c[nH]c2cccc(F)c12)[C@@H]1NC(=O)[C@@H]2C[C@H](F)CN2C(=O)CNC(=O)[C@H](Cc2ccc(C(=O)O)cc2)NC(=O)[C@H](Cc2ccncc2)NC(=O)[C@H](Cc2ccc(-c3ccc(C(=O)O)cc3)cc2)NC(=O)[C@H]2C[C@@H](Cc3ccc(F)cc3)CN2C(=O)CNC(=O)[C@H](CCN)NC(=O)[C@H](CCC(N)=O)NC(=O)[C@H](Cc2cncnc2)NC(=O)C2(CCNCC2)NC(=O)[C@H](Cc2c[nH]c3ccccc23)NC(=O)[C@H](CCC(=O)O)NC(=O)C(C)(C)NC1=O) [SEQ ID NO: 65]	0.025 nM
